The target of this experiment is BCL6 BTB domain (BCL6 5-129, tag removed by HRV-3C protease) (human) (UniProt P41182). The experiment in a line: fluorescence polarisation; competition: 10 nM BCOR-AF633, 3 µM BCL6 BTB, unlabelled peptide varied; 20 mM Hepes/NaOH pH 8.0, 150 mM NaCl, 0.5 mM TCEP, 0.05% Tween 20, 1-2% DMSO; 2 h at room temperature. (In general: Polarisation of emitted light reports the rotation of a fluorescent probe.)

Turning to WVIP tetrapeptide (Ac-WVIP-NH2), the % inhibition at 980 µM turned out to be 16%.

By % inhibition is commonly meant the relative decrease from the control value, in per cent.

The values are drawn from article PMC9633773, “Discovering cell-active BCL6 inhibitors: effectively combining biochemical HTS with multiple biophysical techniques, X-ray crystallography and cell-based assays” (Scientific Reports, 2022).
